Numbering of substitutions follows the chain as printed. Blank lines part the entries; values can stand above or below the binder they belong to.
What was measured:
Assay in all cases: ELISA, antibody coated, LAG-3 D12.mFc mutant in supernatant, normalised to control mutants
[1] = target: T1, human LAG-3-ECD.D12.mFc mutant L42A (human, UniProt P18627 37-252)
T1 construct: Alanine scanning mutant; construct limits as for m26
T1 chain: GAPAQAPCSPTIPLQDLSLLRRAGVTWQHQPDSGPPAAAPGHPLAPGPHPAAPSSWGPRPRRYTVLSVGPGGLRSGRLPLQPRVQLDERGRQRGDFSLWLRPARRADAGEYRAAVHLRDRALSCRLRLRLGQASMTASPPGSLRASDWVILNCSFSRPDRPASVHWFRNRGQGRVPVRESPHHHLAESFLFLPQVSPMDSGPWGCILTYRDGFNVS
Experimental: (§1) For ELISA binding assay, the antibody 1.53.3-uAb-IgG4k or 3.40.19-uAb-hIgG4L (2 μg/mL) was coated in plates. After interacting with the supernatant that contains quantified LAG-3 mutants or human LAG-3-ECD.D12.mFc protein, HRP conjugated anti-mFc antibody (1:5000; Bethyl, USA) was added as a detection antibody. Absorbance was normalized according to the average absorbance of control mutants. After setting an additional cutoff to the binding fold change (<0.75), the final determined epitope residues were identified.

[2] = target: T2, human LAG-3-ECD.D12.mFc mutant A59G (human, UniProt P18627 37-252)
T2 construct: construct limits as for m26
T2 chain: T1 chain with A6L, A23G
Experimental: as §1

[3] = target: T3, human LAG-3-ECD.D12.mFc mutant W63A (human, UniProt P18627 37-252)
T3 construct: Alanine scanning mutant; construct limits as for m26
T3 chain: T1 chain with A6L, W27A
Experimental: as §1

[4] = target: T4, human LAG-3-ECD.D12.mFc mutant H65A (human, UniProt P18627 37-252)
T4 construct: Alanine scanning mutant; construct limits as for m26
T4 chain: T1 chain with A6L, H29A
Experimental: as §1

[5] = target: T5, human LAG-3-ECD.D12.mFc mutant V101A (human, UniProt P18627 37-252)
T5 construct: Alanine scanning mutant; construct limits as for m26
T5 chain: T1 chain with A6L, V65A
Experimental: as §1

[6] = target: T6, human LAG-3-ECD.D12.mFc mutant G145A (human, UniProt P18627 37-252)
T6 construct: Alanine scanning mutant; construct limits as for m26
T6 chain: T1 chain with A6L, G109A
Experimental: as §1

[7] = target: T7, human LAG-3-ECD.D12.mFc mutant Y147A (human, UniProt P18627 37-252)
T7 construct: Alanine scanning mutant; construct limits as for m26
T7 chain: T1 chain with A6L, Y111A
Experimental: as §1

[8] = target: T8, human LAG-3-ECD.D12.mFc mutant L153A (human, UniProt P18627 37-252)
T8 construct: Alanine scanning mutant; construct limits as for m26
T8 chain: T1 chain with A6L, L117A
Experimental: as §1

Fold Change [1]: 0.624 | Fold Change [2]: 0.718 | Fold Change [3]: 0.585 | Fold Change [4]: 0.627 | Fold Change [5]: 0.504 | Fold Change [6]: 0.692 | Fold Change [7]: 0.637 | Fold Change [8]: 0.749
B1: 1.53.3-uAb-IgG4k (antibody, V domains shown)
VH: QVQLQQWGAGLLKPSETLSLTCGVYGGSFSGYYWSWIRQPPGMGLEWIGEINHRGNTNYNPSLKSRVTISEDTSKNQFSLRLSSVTAADTAVYFCTRGEDYSDYDYYGDFWGQGTLVTVSS
VL: EIVLTQSPATLSLSQGERATLSCRASQSISSYLAWYQQKPGQAPRLLIYAASNRATGIPARFSGSGSGTDFTLTISSLEPEDFAIYYCQQRSNWPLTFGGGTKVEIK
notes: Fully human antibody from OMT rats; IgG4 kappa by its name

Fold Change [1]: 0.306 | Fold Change [2]: 0.542 | Fold Change [3]: 0.171 | Fold Change [4]: 0.489 | Fold Change [5]: 0.275 | Fold Change [6]: 0.466 | Fold Change [7]: 0.19 | Fold Change [8]: 0.632
B2: 3.40.19-uAb-IgG4L (antibody, V domains shown)
VH: QLQLQESGPGLVKPSETLSLTCTVSGDSISSTSYYWGWIRQPPGKGLEWIGSFYYSGSTYYNPSLKSRVTISVDTSKNQFSLKLNSVTAADTAVYYCARMQLWSYDVDVWGQGTTVTVSS
VL: QSALTQPASVSGSPGQSITISCTGTSSDVGGYDYVAWYQQHPGKVPKLMIYDVSERPSGVSNRFSGSKSGNTASLTISGLQAEDEADYYCSSYTSTTTLVVFGGGTKLSVL
notes: Fully human antibody from OMT rats; IgG4 lambda by its name; also called 3.40.19-uAb-hIgG4L
